In the supplement of paper PMC10899765:

Columns and labels:
Conditions in all cases: 20 nM; 72 h
MCF10A [1] = test: 5+ nucleoli phenotype percent effect (relative to siNT 0% and siKIF11 100%); higher = more cells with five or more nucleoli
Protocol: (§1)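 After 72 h, cells were fixed and stained with Hoechst and anti-fibrillarin, and nucleoli per nucleus were counted with CellProfiler. Values are plate-adjusted percent effect for the one-nucleolus and 5+ nucleoli phenotypes, normalised to siNT (0%) and to the positive controls siNOL11 or siKIF11 (100%), as the mean of biological triplicates. Percent viability is the nuclei count relative to siNT.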

MCF10A [2] = test: one-nucleolus phenotype percent effect (relative to siNT 0% and siNOL11 100%); higher = more cells with one nucleolus (ribosome biogenesis inhibition)
Protocol: as §1

MCF10A [3] = test: percent viability (nuclei count relative to siNT); higher = more viable cells
Protocol: as §1

Row | Sequence | 5+ nucleoli phenotype percent effect (MCF10A [1]) [%] | one-nucleolus phenotype percent effect (MCF10A [2]) [%] | percent viability (MCF10A [3]) [%]
1 | UAAAGAGCCCUGUGGAGACA [hsa-miR-1276] | -20.8 | 24.1 | 41.4
2 | UAAAGUAAAUAUGCACCAAAA [hsa-miR-559] | 24 | -21.4 | 153
3 | UAAAGUGCUGACAGUGCAGAU [hsa-miR-106b-5p] | 5.03 | -11.2 | 91.2
4 | UAAAGUGCUUAUAGUGCAGGUAG [hsa-miR-20a-5p] | 6.94 | -13.2 | 81.6
5 | UAAAGUGGCAGAGUAUAGACAC [hsa-miR-4796-3p] | -8.21 | -1.57 | 75.7
6 | UAAAUAGAGUAGGCAAAGGACA [hsa-miR-3121-3p] | 15.6 | -18 | 49.3
7 | UAAAUCCCAUGGUGCCUUCUCCU [hsa-miR-605] | -52.1 | 53.8 | 31.2
8 | UAAAUUUCACCUUUCUGAGAAGA [hsa-miR-513c-3p] | -1.66 | 15.7 | 28.5
9 | UAAAUUUCACCUUUCUGAGAAGG [hsa-miR-513a-3p] | -3.52 | 18 | 49
10 | UAACAAACACCUGUAAAACAGC [hsa-miR-5688] | 22.5 | -7.14 | 101
11 | UAACACUGUCUGGUAAAGAUGG [hsa-miR-141-3p] | 44.6 | -19.9 | 83
12 | UAACACUGUCUGGUAACGAUGU [hsa-miR-200a-3p] | 36.9 | -6.99 | 75.6
13 | UAACAGUCUACAGCCAUGGUCG [hsa-miR-132-3p] | -13.6 | -5.13 | 112
14 | UAACAGUCUCCAGUCACGGCC [hsa-miR-212-3p] | 29.7 | -19.5 | 219
15 | UAACAUAAUAGUGUGGAUUGA [hsa-miR-4803] | 40.9 | -25 | 168
16 | UAACCCUGUCCUCUCCCUCCCAG [hsa-miR-6732-3p] | 1.9 | -9.42 | 36.4
17 | UAACGCAUAAUAUGGACAUGU [hsa-miR-3912] | 27.3 | -23.9 | 71.2
18 | UAACGGCCGCGGUACCCUAA [hsa-miR-4485] | -19.2 | 0.183 | 32.8
19 | UAACUGGUUGAACAACUGAACC [hsa-miR-582-3p] | 31.1 | -29.8 | 106
20 | UAAGGAGGGGGAUGAGGGG [hsa-miR-6891-5p] | -18.8 | -7.18 | 51.8
21 | UAAGGCACCCUUCUGAGUAGA [hsa-miR-506-3p] | -31.8 | 57.2 | 15.7
22 | UAAGGGGUGUAUGGCAGAUGCA [hsa-miR-3936] | -17.6 | 36.7 | 19.2
23 | UAAGGUGCAUCUAGUGCAGAUAG [hsa-miR-18a-5p] | -34.5 | 37.7 | 49.1

Row | Sequence | 5+ nucleoli phenotype percent effect (MCF10A [1]) [%] | one-nucleolus phenotype percent effect (MCF10A [2]) [%] | percent viability (MCF10A [3]) [%]
24 | UAAGGUGCAUCUAGUGCAGUUAG [hsa-miR-18b-5p] | -32.4 | 40.6 | 41.9
25 | UAAGUGCUUCCAUGCUU [hsa-miR-302e] | 65.3 | -16.8 | 93.6
26 | UAAGUGCUUCCAUGUUUCAGUGG [hsa-miR-302c-3p] | 52.1 | -16.2 | 78
27 | UAAGUGCUUCCAUGUUUGAGUGU [hsa-miR-302d-3p] | 63.5 | -16.6 | 68
28 | UAAGUGCUUCCAUGUUUUAGUAG [hsa-miR-302b-3p] | 33.7 | -12.2 | 74.9
29 | UAAGUGCUUCCAUGUUUUGGUGA [hsa-miR-302a-3p] | 72.3 | -15.9 | 78.9
30 | UAAUACUGCCGGGUAAUGAUGGA [hsa-miR-200c-3p] | 62.3 | -17 | 104
31 | UAAUACUGCCUGGUAAUGAUGA [hsa-miR-200b-3p] | 93.4 | -28.6 | 104
32 | UAAUACUGUCUGGUAAAACCGU [hsa-miR-429] | 61.9 | -19 | 112
33 | UAAUCCUUGCUACCUGGGUGAGA [hsa-miR-500a-5p] | -16.1 | 19.3 | 55
34 | UAAUCUCAGCUGGCAACUGUGA [hsa-miR-216a-5p] | -8.01 | 6.23 | 67.7
35 | UAAUGAUUCAUCAGACUCAGAU [hsa-miR-580-5p] | -17.8 | 14 | 32.9
36 | UAAUGCAUUAAAUUAUUGAAGG [hsa-miR-5700] | 47.4 | -23.8 | 125
37 | UAAUGCCCCUAAAAAUCCUUAU [hsa-miR-365a-3p] | 6.01 | 2.74 | 89.5
38 | UAAUGCCCCUAAAAAUCCUUAU [hsa-miR-365b-3p] | -12.3 | 5.41 | 37.9
39 | UAAUUGCUUCCAUGUUU [hsa-miR-302f] | -31.2 | 22.1 | 65.5
40 | UAAUUUUAUGUAUAAGCUAGU [hsa-miR-590-3p] | 34.3 | -23.9 | 121
41 | UACAAGUCAGGAGCUGAAGCAG [hsa-miR-6882-5p] | 1.17 | -8.28 | 45.8
42 | UACACAAGAAAACCAAGGCUCA [hsa-miR-4801] | 20.3 | -13.4 | 82
43 | UACAGAUGCAGAUUCUCUGACUUC [hsa-miR-5683] | 8.12 | 15.3 | 40.9
44 | UACAGCCCUGUGAUCUUUCCAG [hsa-miR-6856-3p] | 21 | -21 | 74.9
45 | UACAGUACUGUGAUAACUGAA [hsa-miR-101-3p] | -26.5 | 11.6 | 86
